The values that follow come from patent publication US20150139990A1 (DAINIPPON SUMITOMO PHARMA, published 2015).

One experiment concerns the target T1, human CD81 mutant G158A (human, UniProt P60033 1-236, limits assumed).
T1 construct: as m30; not shown: C-terminal V5 and 6xHis tags
T1 sequence: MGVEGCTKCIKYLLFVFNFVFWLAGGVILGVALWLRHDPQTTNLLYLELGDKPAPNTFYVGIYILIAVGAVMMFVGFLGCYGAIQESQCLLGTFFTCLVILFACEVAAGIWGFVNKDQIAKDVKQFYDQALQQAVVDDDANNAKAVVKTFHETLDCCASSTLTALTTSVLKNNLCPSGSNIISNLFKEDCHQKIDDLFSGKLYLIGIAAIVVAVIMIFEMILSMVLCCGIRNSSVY
Nature of the experiment: ELISA. A digest of the protocol: (§1)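 Altered forms of human CD81 carrying C-terminal V5 and 6×His tags were cloned in pcDNA-DEST40 and expressed transiently in CHO cells for 48 hours, after which membranes were solubilised in 1% n-octylglucoside and captured on Ni-NTA His Sorb plates at 5 μg/100 μL/well for 3 hours at 4° C. Antibody was bound for 1 hour at room temperature and detected with HRP anti-human IgG4 and TMB, reading absorbance at 450 nm. Relative binding affinity is expressed as a percentage of binding to unmodified CD81, adjusted for V5-tag expression.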

Experiment [1] has as its target T2, human CD81 mutant D137A (human, UniProt P60033 1-236, limits assumed).
T2 construct: as m30; not shown: C-terminal V5 and 6xHis tags
T2 sequence: T1 sequence with D137A, A158G
Kind of experiment: ELISA. A digest of the protocol: as §1

For experiment [2], the target named is T3, human CD81 on CD81-expressing cells (Jurkat E6.1, human PBMC, Ramos) (human, UniProt P60033 1-236).
T3 construct: endogenous CD81 of the cells; also called wild type human CD81
T3 sequence: T1 sequence with A158G
Kind of experiment: flow cytometry, human PBMC. The source says:
(§2) Based on known information (JOURNAL OF VIROLOGY., 79, 4316-4328, 2005), Jurkat E6.1 cells and human PBMC (Peripheral Blood Mononuclear cells) were used as human CD81-expressing cells to confirm binding of the antibodies of the present invention obtained in Example 1 to the human CD81-expressing cells. Jurkat E6.1 cells were purchased from European Collection of Cell Cultures (ECACC) (Cat No. 88042803). Human PBMC were purchased from KAC Co., Ltd. (KAC). These cells were collected by centrifugation (4,000 rpm, 3 min, 4° C.) and suspended in FACS staining buffer (phosphate buffer, 0.09% sodium azide, 1% bovine serum albumin (BSA: Hyclone Laboratories)). The number of viable cells was counted using trypan blue and 10⁶ cells/100 μl were added in an eppendorf tube.
(§3) To the cells prepared in (1) above was added the anti-human CD81 antibody (002-A07 or 005-001) prepared in Example 1 or a human IgG4 (Acris) as a control (0.1 μg), and the cells were incubated for 20 min at 4° C. […] The binding ratio (%) of the anti-human CD81 antibody to the cells was analyzed by flow cytometry using FACS Calibur (BD Biosciences) and calculated as the percentage of cells having a PE-derived fluorescent intensity greater than that observed when the control IgG4 is used. […]

For a further experiment, the target named is T4, human CD81 mutant L165A (human, UniProt P60033 1-236, limits assumed).
T4 construct: as m30; not shown: C-terminal V5 and 6xHis tags
T4 sequence: T1 sequence with A158G, L165A
Nature of the experiment: ELISA. A digest of the protocol:
as §1

A further experiment has as its target T5, human CD81 mutant V169A (human, UniProt P60033 1-236, limits assumed).
T5 construct: as m30; not shown: C-terminal V5 and 6xHis tags
T5 sequence: T1 sequence with A158G, V169A
Kind of experiment: ELISA. The procedure, abridged: as §1

A further experiment addresses T6, human CD81 mutant G158S (human, UniProt P60033 1-236, limits assumed).
T6 construct: as m30; not shown: C-terminal V5 and 6xHis tags
T6 sequence: T1 sequence with A158S
Nature of the experiment: ELISA. The procedure, abridged: as §1

For experiment [3], the target named is T2, human CD81 mutant D137A. Kind of experiment: ELISA. A digest of the protocol: as §1
This is another data set of the same source.

In experiment [4] the target is T3, human CD81 on CD81-expressing cells …. Nature of the experiment: flow cytometry, Jurkat E6.1 cells.
Description: as §2, §3

Residue numbers refer to the chain shown, from its start. Names may count otherwise. Read-outs that look alike come from different tables or passages of the source.

B1: 002-A07 IgG4 antibody (antibody)
heavy: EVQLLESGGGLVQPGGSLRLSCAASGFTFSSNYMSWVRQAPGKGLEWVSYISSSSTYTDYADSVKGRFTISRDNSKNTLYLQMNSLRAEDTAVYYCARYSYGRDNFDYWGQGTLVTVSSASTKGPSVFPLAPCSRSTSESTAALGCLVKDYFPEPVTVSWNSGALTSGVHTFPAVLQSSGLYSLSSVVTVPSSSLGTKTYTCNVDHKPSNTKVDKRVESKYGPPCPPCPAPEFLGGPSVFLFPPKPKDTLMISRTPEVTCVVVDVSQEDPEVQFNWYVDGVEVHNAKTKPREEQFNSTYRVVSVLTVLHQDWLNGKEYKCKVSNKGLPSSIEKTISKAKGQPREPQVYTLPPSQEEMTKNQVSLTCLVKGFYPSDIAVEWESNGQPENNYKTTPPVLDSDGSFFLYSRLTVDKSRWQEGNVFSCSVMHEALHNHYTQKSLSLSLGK
light: QSVLTQPPSASGTPGQRVTISCTGSTSNIGAGYDTHWYQQLPGTAPKLLIYGNSNRPSGVPDRFSGSKSGTSASLAISGLRSEDEADYYCQSYDTNLSVWVFGGGTKLTVLGQPKAAPSVTLFPPSSEELQANKATLVCLISDFYPGAVTVAWKADSSPVKAGVETTTPSKQSNNKYAASSYLSLTPEQWKSHRSYSCQVTHEGSTVEKTVAPTECS
notes: human IgG4 S228P, lambda light chain
As for B1, the relative binding affinity in the experiment with human CD81 mutant G158A, in the experiment with human CD81 mutant D137A [1], in the experiment with human CD81 mutant L165A, in the experiment with human CD81 mutant V169A, in the experiment with human CD81 mutant G158S and with human CD81 mutant D137A [3] was less than 20% each time. Also, the “binding ratio to cells (%)” value turned out to be 99% in experiment [2] and 100% in experiment [4].
